The record followed here is patent US20250283065A1, “TRUNCATED POLYPEPTIDES HAVING PROTEIN LIGASE ACTIVITY AND METHODS OF PRODUCTION THEREOF” (NANYANG TECHNOLOGICAL UNIVERSITY, priority 2022, published 2025).

One series has as its system OaAEP1b-C247A-Δ351. Briefly: Active site titration by FRET ligation assay with covalent inhibitor. The settings on record: enzyme 280 nM, 1 hour incubation. In kind it is biochemical, Oldenlandia affinis. How it is done: Active site titration: The procedure described in reference was followed. The enzyme preparation was diluted to a concentration of 280 nM using a buffer containing 20 mM sodium phosphate at pH 6.5, 5 mM 2-Mercaptoethanol. Solutions containing serial twofold dilution of inhibitor YVAD-cmk were prepared in a black microtiter plate (Greiner Bio-One) using buffer as diluent. The enzyme was subsequently added to the wells containing the inhibitor to a final volume of 50 μL. The plate was incubated for 1 hour at room temperature before adding FRET peptides (PIE {EDANS} YNAL (SEQ ID NO:18) and GIK {DABSYL} SIP (SEQ ID NO: 19)), which were mixed at a molar ratio of 1:3 giving a final enzyme: substrate molar ratio of 1:200. The EDANS fluorescence signal was measured with an excitation wavelength of 336 nm and an emission wavelength of 490 nm. Relative fluorescence units (RFU) of quenched EDANS signal were plotted against time. The value of the initial velocity (Vi) was determined from the slope of the RFU (t) curve. The measured value of Vi was subsequently normalized by dividing with the initial rate obtained in the absence of inhibitor (control V0). The calculated Vi/V0 ratio was plotted against inhibitor concentrations, generating an inhibition curve. […]

Series [1] addresses OaAEP1b-C247A-Δ351 with His-tag and TEV cleavage sequence (construct for recombinant expression) (Oldenlandia affinis). The series is described as follows: cell-based or functional assay.
Series [2] concerns the target mixture of FRET peptides A: PIE{EDANS}YNAL and B: GIK{DABSYL}SIP at a molar ratio of 1:3.
The test system of series [3] is peptides PIE {EDANS} YNAL and GIK {DABSYL} SIP. The series is described as follows: FRET ligation kinetics assay. It is filed as biochemical. The note with it: 50 nM enzyme, peptides A:B molar ratio 1:3. The method, then:
Kinetics assay: The kinetic properties of the peptide ligation of the constitutively active PAL were studied using a FRET assay. Two peptides synthesized by GenScript: PIE {EDANS} YNAL (SEQ ID NO:18) and GIK {DABSYL} SIP (SEQ ID NO:19) were mixed at a molar ratio of 1:3. Upon ligation, the peptide PIE {EDANS} YNGIK {DABSYL} SIP (SEQ ID NO: 20) is produced. 50 nM of PAL enzyme is mixed with various concentrations of the peptide mixture. The EDANS fluorescence signal was measured with an excitation wavelength of 336 nm and an emission wavelength of 490 nm. A reduction in EDANS fluorescence signal occurs upon ligation of the two peptides due to quenching by DABSYL. The variation in fluorescence signal for each substrate mixture concentration was measured after addition of the enzyme to initiate the reaction. The rate of decrease in fluorescence signal during the first 30 seconds after enzyme addition was plotted against the substrate concentration to obtain the Vmax, kcat and KM values for each enzyme.
Next, using a FRET ligation assay, the ligase activity of the truncated OaAEP1b-C247A-Δ351 was compared with its acid-activated zymogen counterpart. Briefly, 50 nM of either enzyme was added to a mixture of two peptides A: PIE (EDANS) YNAL (SEQ ID NO:18) and B: GIK (DABSYL) SIP (SEQ ID NO:19). These two peptides were mixed in a A:B molar ratio of 1:3. Upon ligation, the fluorescence signal emission of the EDANS moiety of A (λem=490 nm) becomes quenched by the DABSYL moiety of B. (FIG. 7A). This assay the ligation rate to be followed between both peptides in real-time, giving access to the kinetic parameters of the truncated enzyme.

As for ac-YVAD-cmk [reference compound], in the series on OaAEP1b-C247A-Δ351, the “minimal concentration of inhibitor necessary for a complete inhibition of the ligation activity” value was 150 nM.

B1: Ac-YVAD-cmk (peptide)
peptide: YVAD
modifications: N-terminal acetyl; C-terminal chloromethylketone (cmk)
In the case of B1, in series [1], the fraction of the measured protein concentration that is active and amenable to complete inhibition (active site titration) stood at 53%; the minimal concentration of inhibitor necessary for a complete inhibition of the ligation activity (active site titration, enzyme at 280 nM) turned out to be 150 nM.

B2: OaAEP1b-C247A-Δ351 with His-tag and TEV cleavage sequence (construct for recombinant expression) (protein)
chain: MHHHHHHSSGVDLGTENLYFQSVGTRWAVLIAGSKGYANYRHQAGVCHAYQILKRGGLKDENIVVFMYDDIAYNESNPRPGVIINSPHGSDVYAGVPKDYTGEEVNAKNFLAAILGNKSAITGGSGKVVDSGPNDHIFIYYTDHGAAGVIGMPSKPYLYADELNDALKKKHASGTYKSLVFYLEACESGSMFEGILPEDLNIYALTSTNTTESSWCYYCPAQENPPPPEYNVCLGDLFSVAWLEDSDVQNSWYETLNQQYHHVDKRISHASHATQYGNLKLGEEGLFVYMGSNPANDNYTSLDGNALTPSSIVVNQRDAD
In the case of B2, in series [2], the “Km (FRET ligation assay)” value came to 8.16 µM and the “Vmax (FRET ligation assay)” value is listed as 6.40 RFU/see.

B3: acid-activated OaAEP1b-C247A (protein)
chain: MVRYLAGAVLLLVVLSVAAAVSGARDGDYLHLPSEVSRFFRPQETNDDHGEDSVGTRWAVLIAGSKGYANYRHQAGVCHAYQILKRGGLKDENIVVFMYDDIAYNESNPRPGVIINSPHGSDVYAGVPKDYTGEEVNAKNFLAAILGNKSAITGGSGKVVDSGPNDHIFIYYTDHGAAGVIGMPSKPYLYADELNDALKKKHASGTYKSLVFYLEACESGSMFEGILPEDLNIYALTSTNTTESSWAYYCPAQENPPPPEYNVCLGDLFSVAWLEDSDVQNSWYETLNQQYHHVDKRISHASHATQYGNLKLGEEGLFVYMGSNPANDNYTSLDGNALTPSSIVVNQRDADLLHLWEKFRKAPEGSARKEEAQTQIFKAMSHRVHIDSSIKLIGKLLFGIEKCTEILNAVRPAGQPLVDDWACLRSLVGTFETHCGSLSEYGMRHTRTIANICNAGISEEQMAEAASQACASIP
In the case of B3, in series [2], the Km (FRET ligation assay) was determined as 8.34 µM and the “Vmax (FRET ligation assay)” value stood at 14.32 RFU/see.

B4: acid-activated OaAEP1b-C247A: full-length OaAEP1b-C247A proenzyme expressed in E. coli and activated at low pH according to reference [17] (protein, listed as Oldenlandia affinis)
chain: MVRYLAGAVLLLVVLSVAAAVSGARDGDYLHLPSEVSRFFRPQETNDDHGEDSVGTRWAVLIAGSKGYANYRHQAGVCHAYQILKRGGLKDENIVVFMYDDIAYNESNPRPGVIINSPHGSDVYAGVPKDYTGEEVNAKNFLAAILGNKSAITGGSGKVVDSGPNDHIFIYYTDHGAAGVIGMPSKPYLYADELNDALKKKHASGTYKSLVFYLEACESGSMFEGILPEDLNIYALTSTNTTESSWAYYCPAQENPPPPEYNVCLGDLFSVAWLEDSDVQNSWYETLNQQYHHVDKRISHASHATQYGNLKLGEEGLFVYMGSNPANDNYTSLDGNALTPSSIVVNQRDADLLHLWEKFRKAPEGSARKEEAQTQIFKAMSHRVHIDSSIKLIGKLLFGIEKCTEILNAVRPAGQPLVDDWACLRSLVGTFETHCGSLSEYGMRHTRTIANICNAGISEEQMAEAASQACASIP
modifications: acid-activated
Consider B4, for which, in series [3], the Vmax is listed as 14.32 RFU/see.
